Legend:
[1] = target: UG021.16
[2] = target: 3016.v5.c45
[3] = target: SVA.MLV
[4] = target: ZM233.6
[5] = target: Env of HIV-1 strain 6405 (pseudovirus) (HIV-1)
[6] = target: 3326.V4.C3
[7] = target: ZM197.7
[8] = target: ZM53.12
[9] = target: UG024.2
[10] = target: Env of HIV-1 strain A03349M1 (pseudovirus) (HIV-1)
[11] = target: 57128.vrc15
[12] = target: NKU3006.ec1
[13] = target: ZM215.8
[14] = target: ZM55.28a
[15] = target: ZM214.15
[16] = target: 3817.v2.c59
[17] = target: Env of HIV-1 strain X2088 (pseudovirus) (HIV-1)
[18] = target: 231965.c1
[19] = target: SIVmac251.30.SG3
[20] = target: 3337.V2.C6
[21] = target: ZM249.1
[22] = target: CNE7
[23] = target: DU422.01
[24] = target: TV1.29
[25] = target: Env of HIV-1 strain 6631 (pseudovirus) (HIV-1)
[26] = target: ZA012.29
[27] = target: ZM106.9
[28] = target: DU156.12
[29] = target: CNE58
[30] = target: CNE31
[31] = target: CNE53
[32] = target: DU123.06
[33] = target: TZBD.02
[34] = target: CAP45.G3
[35] = target: CH181.12
[36] = target: 3168.V4.C10
[37] = target: Env of HIV-1 strain 6322 (pseudovirus) (HIV-1)
[38] = target: Env of HIV-1 strain 6471 (pseudovirus) (HIV-1)
[39] = target: CNE40
[40] = target: DU151.02
[41] = target: CH070.1
[42] = target: CH038.12
[43] = target: 96ZM651.02
[44] = target: CAP210.E8
[45] = target: CNE15
[46] = target: CH117.4
[47] = target: 6785.V5.C14
[48] = target: DU172.17
[49] = target: TZA125.17
[50] = target: BR025.9
[51] = target: SO18.18
[52] = target: Env of HIV-1 strain CNE30 (pseudovirus) (HIV-1)
[53] = target: ZM176.66
[54] = target: ZM146.7
[55] = target: 3637.V5.C3
[56] = target: MW965.26
[57] = target: CNE57
[58] = target: CAP244.D3
[59] = target: 6644.V2.C33
[60] = target: 0077_V1.C16
[61] = target: Env of HIV-1 strain 3873 (pseudovirus) (HIV-1)
[62] = target: ZM109.4
[63] = target: Env of HIV-1 strain ZM135 (pseudovirus) (HIV-1)
[64] = target: 1FD6 CAP45 scaffold N156D; assay: ELISA, supernatant on His grab plates
[65] = target: 1FD6 CAP45 scaffold N147D; assay: ELISA, supernatant on His grab plates
[66] = target: C2101.c1
[67] = target: R3265.c6
[68] = target: Q23.17
[69] = target: BI369.9A
[70] = target: CNE5
[71] = target: 3589_V1_C4

monoclonal antibody PG9
neutralization IC50 [1]: > 50 µg/mL | neutralization IC50 [2]: 0.286 µg/mL | neutralization IC50 [3]: > 50 µg/mL | neutralization IC50 [4]: < 0.023 µg/mL | neutralization IC50 [5]: > 50 µg/mL | neutralization IC50 [6]: < 0.023 µg/mL | neutralization IC50 [7]: 0.414 µg/mL | neutralization IC50 [8]: 0.041 µg/mL | neutralization IC50 [9]: 3.94 µg/mL | neutralization IC50 [10]: > 50 µg/mL | neutralization IC50 [11]: 0.104 µg/mL | neutralization IC50 [12]: > 50 µg/mL | neutralization IC50 [13]: < 0.023 µg/mL | neutralization IC50 [14]: 0.571 µg/mL | neutralization IC50 [15]: > 50 µg/mL | neutralization IC50 [16]: 0.007 µg/mL | neutralization IC50 [17]: > 50 µg/mL | neutralization IC50 [18]: 1.51 µg/mL | neutralization IC50 [19]: > 50 µg/mL | neutralization IC50 [20]: > 50 µg/mL | neutralization IC50 [21]: 0.033 µg/mL | neutralization IC50 [22]: 1.66 µg/mL | neutralization IC50 [23]: 0.303 µg/mL | neutralization IC50 [24]: 0.008 µg/mL | neutralization IC50 [25]: > 50 µg/mL | neutralization IC50 [26]: 27 µg/mL | neutralization IC50 [27]: 0.639 µg/mL | neutralization IC50 [28]: < 0.023 µg/mL | neutralization IC50 [29]: < 0.023 µg/mL | neutralization IC50 [30]: 13.5 µg/mL | neutralization IC50 [31]: 0.147 µg/mL | neutralization IC50 [32]: 0.091 µg/mL | neutralization IC50 [33]: 0.266 µg/mL | neutralization IC50 [34]: < 0.023 µg/mL | neutralization IC50 [35]: 0.008 µg/mL | neutralization IC50 [36]: 0.162 µg/mL | neutralization IC50 [37]: > 50 µg/mL | neutralization IC50 [38]: > 50 µg/mL | neutralization IC50 [39]: 1.16 µg/mL | neutralization IC50 [40]: < 0.023 µg/mL | neutralization IC50 [41]: 0.006 µg/mL | neutralization IC50 [42]: 0.5 µg/mL | neutralization IC50 [43]: > 50 µg/mL | neutralization IC50 [44]: 0.087 µg/mL | neutralization IC50 [45]: < 0.023 µg/mL | neutralization IC50 [46]: 0.008 µg/mL | neutralization IC50 [47]: < 0.023 µg/mL | neutralization IC50 [48]: 0.262 µg/mL | neutralization IC50 [49]: 0.231 µg/mL | neutralization IC50 [50]: 0.044 µg/mL | neutralization IC50 [51]: 0.061 µg/mL | neutralization IC50 [52]: > 50 µg/mL | neutralization IC50 [53]: 0.007 µg/mL | neutralization IC50 [54]: 0.635 µg/mL | neutralization IC50 [55]: > 50 µg/mL | neutralization IC50 [56]: 1.99 µg/mL | neutralization IC50 [57]: > 50 µg/mL | neutralization IC50 [58]: 0.088 µg/mL | neutralization IC50 [59]: 0.033 µg/mL | neutralization IC50 [60]: 0.091 µg/mL | neutralization IC50 [61]: > 50 µg/mL | neutralization IC50 [62]: 0.106 µg/mL | neutralization IC50 [63]: > 50 µg/mL | EC50 [64]: 4.9 µg/mL | EC50 [65]: 0.1 µg/mL | neutralization IC50 [66]: 0.026 µg/mL | neutralization IC50 [67]: 1.3 µg/mL | neutralization IC50 [68]: 0.007 µg/mL | neutralization IC50 [69]: 0.029 µg/mL | neutralization IC50 [70]: < 0.023 µg/mL | neutralization IC50 [71]: 0.025 µg/mL

monoclonal antibody PG16
neutralization IC50 [1]: > 50 µg/mL | neutralization IC50 [2]: > 50 µg/mL | neutralization IC50 [3]: > 50 µg/mL | neutralization IC50 [4]: < 0.023 µg/mL | neutralization IC50 [5]: > 50 µg/mL | neutralization IC50 [6]: < 0.023 µg/mL | neutralization IC50 [7]: 0.65 µg/mL | neutralization IC50 [8]: < 0.023 µg/mL | neutralization IC50 [9]: > 50 µg/mL | neutralization IC50 [10]: > 50 µg/mL | neutralization IC50 [11]: 0.162 µg/mL | neutralization IC50 [12]: > 50 µg/mL | neutralization IC50 [13]: > 50 µg/mL | neutralization IC50 [14]: > 50 µg/mL | neutralization IC50 [15]: > 50 µg/mL | neutralization IC50 [16]: 0.006 µg/mL | neutralization IC50 [17]: > 50 µg/mL | neutralization IC50 [18]: 4.72 µg/mL | neutralization IC50 [19]: > 50 µg/mL | neutralization IC50 [20]: > 50 µg/mL | neutralization IC50 [21]: 0.073 µg/mL | neutralization IC50 [22]: 0.393 µg/mL | neutralization IC50 [23]: < 0.023 µg/mL | neutralization IC50 [24]: 0.002 µg/mL | neutralization IC50 [25]: > 50 µg/mL | neutralization IC50 [26]: 0.631 µg/mL | neutralization IC50 [27]: 1.1 µg/mL | neutralization IC50 [28]: < 0.023 µg/mL | neutralization IC50 [29]: < 0.023 µg/mL | neutralization IC50 [30]: 2.51 µg/mL | neutralization IC50 [31]: > 50 µg/mL | neutralization IC50 [32]: < 0.023 µg/mL | neutralization IC50 [33]: 0.025 µg/mL | neutralization IC50 [34]: < 0.023 µg/mL | neutralization IC50 [35]: 0.002 µg/mL | neutralization IC50 [36]: 0.037 µg/mL | neutralization IC50 [37]: > 50 µg/mL | neutralization IC50 [38]: > 50 µg/mL | neutralization IC50 [39]: 49 µg/mL | neutralization IC50 [40]: < 0.023 µg/mL | neutralization IC50 [41]: 0.002 µg/mL | neutralization IC50 [42]: 49 µg/mL | neutralization IC50 [43]: > 50 µg/mL | neutralization IC50 [44]: < 0.023 µg/mL | neutralization IC50 [45]: < 0.023 µg/mL | neutralization IC50 [46]: 0.005 µg/mL | neutralization IC50 [47]: < 0.023 µg/mL | neutralization IC50 [48]: 0.03 µg/mL | neutralization IC50 [49]: 0.024 µg/mL | neutralization IC50 [50]: 0.009 µg/mL | neutralization IC50 [51]: 0.023 µg/mL | neutralization IC50 [52]: > 50 µg/mL | neutralization IC50 [53]: 0.002 µg/mL | neutralization IC50 [54]: 0.767 µg/mL | neutralization IC50 [55]: > 50 µg/mL | neutralization IC50 [56]: 0.961 µg/mL | neutralization IC50 [57]: > 50 µg/mL | neutralization IC50 [58]: < 0.023 µg/mL | neutralization IC50 [59]: 35.3 µg/mL | neutralization IC50 [60]: < 0.023 µg/mL | neutralization IC50 [61]: 12.2 µg/mL | neutralization IC50 [62]: 4.93 µg/mL | neutralization IC50 [63]: > 50 µg/mL | EC50 [64]: > 50 µg/mL | EC50 [65]: 0.7 µg/mL | neutralization IC50 [66]: 0.009 µg/mL | neutralization IC50 [67]: 0.036 µg/mL | neutralization IC50 [68]: 0.002 µg/mL | neutralization IC50 [69]: 0.007 µg/mL | neutralization IC50 [70]: < 0.023 µg/mL | neutralization IC50 [71]: 0.728 µg/mL

Source: US20140348865A1, “[…] ON AN HIV-1 V1V2 SITE-OF-VULNERABILITY” (The United States of America, as represented by the …, priority 2011, published 2014)
